The values that follow come from publication PMC12357932 (Nature Communications, 2025).

The target in series [1] is ExsF with the first 23 residues replaced by an N-terminal 6xHis tag (B. paranthracis). The series is described as follows: crystal structure.
The series “crystal structure” concerns the molecule itself. The series is described as follows: crystal structure.

Molecule “ExsF with the first 23 residues replaced by an N-terminal 6xHis tag (domain or fragment)” gave a stoichiometry N in series [1] of 3.

B1: C-terminal domain of F-BclA (F-BclA-CTD; BTK_RS34675 residues 721-863) (domain or fragment)
chain: MHHHHHHSVGLTNYLYVFDTTNQSIAVGSSVTFNTNGPITGTALSHITGTGNIIINTLGTYVAEFQLQASRENQFSLELNGTPIPGGRFGTGSPHSINQGTAAFTVTVVPSTLTLINNTSSAGTITLSNSDGGSLTNVSASISIFQVG
For the molecule B1, the “stoichiometry N” value in the series “crystal structure” was 3.

As usually defined, the stoichiometry N is a count of units in the complex or per binding partner.
